# Measured values as given in the RNAGym collection of RNA variant scans (doi:10.7554/elife.90254).
# B1: OR4K15 (parent)
# chain: GUUAACGGUCAUAGGCCAUGGAAACUAGGAGCACCAUUUCGCUGCCAGUGAAGAAAUGAACAAAGAAAAUCUGGGCCAGGCAGGCAUCAAAAGAAAUAGUCUUGCGCUCAACCAGAAAGUCUGUAAUCAUUUUAAGGGUA
# Variants of: B1
# Assay: self-cleavage, relative activity (ratio to wild type); higher = more cleavage; in vitro, sequencing; the parent is a self-cleaving ribozyme
row,Variant,self-cleavage
1,C112A A129G,0.01
2,A22U U70C,0.9
3,U87G A95G,1.11
4,A23G G83A,1.24
5,A68G C77A,0.54
6,U9C U26C,1.06
7,A78U A140G,0.34
8,U57A A110U,1
9,A125U U133C,2.54
10,U108C C113A,0.01
11,G41A U100C,1.52
12,A11G A54U,1.09
13,U103C U120C,0.4
14,G29A A78C,0.33
15,A96G G138U,1.33
16,A82U A118G,0.06
17,C101A U122C,0.13
18,A47G A55U,0.19
19,A33U U102C,2.32
20,A96G A116U,0.24
21,U122A U139C,0.94
22,A36U U49A,0.81
23,U39C G41U,1.16
24,A62G C112G,0
25,U9C C45G,0.85

row,Variant,self-cleavage
1,A55U A68G,1.44
2,A33G A51G,0.75
3,A52G U103C,0.45
4,A96G A140G,1.47
5,A68U A111G,0.02
6,A69G A117G,1.44
7,G14A A66G,0.8
8,U19C G115A,0.03
9,A36G A117U,1.29
10,C34U A118G,1.49
11,G14A G20A,1.49
12,A63G G106U,0.02
13,A30U A36G,1.71
14,A66U A125G,0.25
15,U37C U139C,1.72
16,U70G A82U,0.2
17,A60G U139A,1.12
18,A4U U120C,0.54
19,U102C A116U,0.23
20,A52C A55U,1.72
21,A47U A117G,1.25
22,C10U U19C,1.34
23,G44A A51G,2.19
24,U12G A24G,1.1
25,G20A A126G,1.02

row,Variant,self-cleavage
1,U120A A129U,0.57
2,A55U U127A,2.63
3,G80A A91G,0.08
4,A52U U57C,1.45
5,A95U U130C,0.47
6,A125C,0.46
7,U37C A140U,1.87
8,A13U U97C,1.4
9,A11C A78G,0.18
10,U131C G136A,0.88
11,A13U U132C,2.18
12,U57C,0.86
13,C128U U130C,0.55
14,A5U C42A,1.82
15,A33U A51G,1.97
16,G138U,1.69
17,A47G A63G,0.44
18,A95G A135G,2.42
19,A33U U70A,0.33
20,A18G U37C,1.04
21,U43C C109A,0.36
22,A4U A96G,1.05
23,U37C G80U,0.11
24,A4G A110U,1.15
25,G8C A110G,0.26

row,Variant,self-cleavage
1,A27G A47G,0.68
2,A18U A78U,0.45
3,C46U C113A,0.01
4,U100C A116G,1.32
5,U37C A126G,1.31
6,U72C A78U,0.15
7,A91C U120C,0.94
8,A63U A94U,1.96
9,G20A U37C,0.64
10,A23G A98G,0.23
11,A62U G74A,0.41
12,U3C U57C,1.28
13,A114U,0.06
14,A69G A110U,0.98
15,U12C A22G,0.98
16,A67G A118G,0.95
17,A27U A54G,1.64
18,C77U U108C,0.03
19,G7U A66G,1.42
20,U37C U102C,1.49
21,A33U A89G,1.46
22,G80A A92G,0.16
23,G7U A52G,1.83
